Experimental data as given in paper PMC4751086 (2016).
Where a chain is given by its changes, count along the chain named.

Key:
[1] = target: T1, HD-PTP(1–361;T145R) (human, UniProt Q9H3S7 1-361, T145R); assay: ITC
T1 sequence: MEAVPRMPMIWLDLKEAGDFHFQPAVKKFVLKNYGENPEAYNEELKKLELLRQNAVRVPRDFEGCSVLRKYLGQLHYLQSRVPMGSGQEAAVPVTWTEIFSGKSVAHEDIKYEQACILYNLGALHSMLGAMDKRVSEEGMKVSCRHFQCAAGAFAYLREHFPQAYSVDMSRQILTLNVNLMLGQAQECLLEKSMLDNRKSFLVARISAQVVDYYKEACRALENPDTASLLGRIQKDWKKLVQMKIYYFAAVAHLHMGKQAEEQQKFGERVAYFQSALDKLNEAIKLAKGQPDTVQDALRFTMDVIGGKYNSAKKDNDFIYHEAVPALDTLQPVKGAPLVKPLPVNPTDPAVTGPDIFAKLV

[2] = target: T2, HD-PTP(1–361;T145K) (human, UniProt Q9H3S7 1-361, T145K); assay: ITC
T2 sequence: T1 sequence with R145K

- Kd [1]: 3.89 µM
- Kd [2]: 4.02 µM
Binder: KEEEDDDMKELENWAGSM [CHMP4B(207–224)]
